Molecular target: T1, STM-His6 (SHOOT …) (Arabidopsis thaliana, UniProt Q38874 1-382)
T1 sequence (looked up): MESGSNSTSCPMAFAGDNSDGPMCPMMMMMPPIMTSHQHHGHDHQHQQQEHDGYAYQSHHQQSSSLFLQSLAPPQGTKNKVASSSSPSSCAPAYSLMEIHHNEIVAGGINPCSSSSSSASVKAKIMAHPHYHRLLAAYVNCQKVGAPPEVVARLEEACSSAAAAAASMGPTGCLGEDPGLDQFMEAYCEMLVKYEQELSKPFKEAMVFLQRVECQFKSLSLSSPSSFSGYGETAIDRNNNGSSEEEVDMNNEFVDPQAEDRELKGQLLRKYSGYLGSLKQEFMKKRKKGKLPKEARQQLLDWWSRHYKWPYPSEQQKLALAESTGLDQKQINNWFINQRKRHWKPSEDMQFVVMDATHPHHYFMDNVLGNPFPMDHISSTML
Assay: pull-down

binding result: binds
B1: GST-WUS (WUSCHEL) (natural protein, Arabidopsis thaliana, UniProt Q9SB92 1-292, looked up)
chain: MEPPQHQHHHHQADQESGNNNNNKSGSGGYTCRQTSTRWTPTTEQIKILKELYYNNAIRSPTADQIQKITARLRQFGKIEGKNVFYWFQNHKARERQKKRFNGTNMTTPSSSPNSVMMAANDHYHPLLHHHHGVPMQRPANSVNVKLNQDHHLYHHNKPYPSFNNGNLNHASSGTECGVVNASNGYMSSHVYGSMEQDCSMNYNNVGGGWANMDHHYSSAPYNFFDRAKPLFGLEGHQEEEECGGDAYLEHRRTLPLFPMHGEDHINGGSGAIWKYGQSEVRPCASLELRLN

Reference: publication PMC7486707 (Proceedings of the National Academy of Sciences of the …, 2020)
